Laboratory results published in publication PMC7935256.

How the values were obtained:
[1] = target: human monoclonal antibody (HMAb) 1C19, IgG (human); experiment: BLI
[2] = target: DENV1 PVP159 strain recombinant E protein ectodomain (residues 1-394) (dengue virus serotype 1, strain PVP159); experiment: dynamic light scattering; recombinant E proteins in 20 mM Tris pH 8.0, 200 mM NaCl, 0.025% Tween-20
[3] = target: DENV1 WestPac74 strain recombinant E protein ectodomain (residues 1-394) (dengue virus serotype 1, strain WestPac 74); experiment: as above
[4] = target: DENV2 NGC strain recombinant E protein ectodomain (residues 1-394) (dengue virus serotype 2, strain NGC); experiment: as above
[5] = target: DENV2 PVP94/07 strain recombinant E protein ectodomain (residues 1-394) (dengue virus serotype 2, strain PVP94/07); experiment: as above
[6] = target: E protein on DENV1 strain WestPac 74 virus particles (dengue virus serotype 1, strain WestPac 74); experiment: cryo-EM structure

Sequence of human monoclonal antibody (HMAb) 1C19, IgG (human) (heavy, as listed by the source, chain 1 of 2): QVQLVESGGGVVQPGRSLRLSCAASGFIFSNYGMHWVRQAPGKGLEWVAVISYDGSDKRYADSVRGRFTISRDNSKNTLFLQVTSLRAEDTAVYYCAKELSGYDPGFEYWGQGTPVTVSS
Sequence of human monoclonal antibody (HMAb) 1C19, IgG (human) (light, as listed by the source, chain 2 of 2): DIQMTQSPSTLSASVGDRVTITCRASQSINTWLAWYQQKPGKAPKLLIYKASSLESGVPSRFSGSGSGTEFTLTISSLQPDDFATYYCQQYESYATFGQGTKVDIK

Substance: DENV1 PVP159 strain recombinant E protein ectodomain (residues 1-394) (domain or fragment)
- Kd [1]: 712 pM
- stoichiometry N [2]: 2

Substance: DENV1 WestPac74 strain recombinant E protein ectodomain (residues 1-394) (domain or fragment)
- stoichiometry N [3]: 2

Substance: DENV2 NGC strain recombinant E protein ectodomain (residues 1-394) (domain or fragment)
- stoichiometry N [4]: 2

Substance: DENV2 PVP94/07 strain recombinant E protein ectodomain (residues 1-394) (domain or fragment)
- stoichiometry N [5]: 2

Substance: Fab 1C19
- copies of Fab bound per virus particle (180 E proteins), Class I [6]: 60 copies
- copies of Fab bound per virus particle (180 E proteins), Class II [6]: 60 copies
